B1: Actin nucleation-promoting factor WASL (Homo sapiens), O00401 (parent)
chain: MSSVQQQPPPPRRVTNVGSLLLTPQENESLFTFLGKKCVTMSSAVVQLYAADRNCMWSKKCSGVACLVKDNPQRSYFLRIFDIKDGKLLWEQELYNNFVYNSPRGYFHTFAGDTCQVALNFANEEEAKKFRKAVTDLLGRRQRKSEKRRDPPNGPNLPMATVDIKNPEITTNRFYGPQVNNISHTKEKKKGKAKKKRLTKADIGTPSNFQHIGHVGWDPNTGFDLNNLDPELKNLFDMCGISEAQLKDRETSKVIYDFIEKTGGVEAVKNELRRQAPPPPPPSRGGPPPPPPPPHNSGPPPPPARGRGAPPPPPSRAPTAAPPPPPPSRPSVAVPPPPPNRMYPPPPPALPSSAPSGPPPPPPSVLGVGPVAPPPPPPPPPPPGPPPPPGLPSDGDHQVPTTAGNKAALLDQIREGAQLKKVEQNSRPVSCSGRDALLDQIRQGIQLKSVADGQESTPPTPAPTSGIVGALMEVMQKRSKAIHSSDEDEDEDDEEDFEDDDEWED

Variants of B1 are the subject of the first experiment. Particulars: with arpc1_yeast ARC40, P38328.
Sequence of arpc1_yeast ARC40, P38328 (P38328 whole entry): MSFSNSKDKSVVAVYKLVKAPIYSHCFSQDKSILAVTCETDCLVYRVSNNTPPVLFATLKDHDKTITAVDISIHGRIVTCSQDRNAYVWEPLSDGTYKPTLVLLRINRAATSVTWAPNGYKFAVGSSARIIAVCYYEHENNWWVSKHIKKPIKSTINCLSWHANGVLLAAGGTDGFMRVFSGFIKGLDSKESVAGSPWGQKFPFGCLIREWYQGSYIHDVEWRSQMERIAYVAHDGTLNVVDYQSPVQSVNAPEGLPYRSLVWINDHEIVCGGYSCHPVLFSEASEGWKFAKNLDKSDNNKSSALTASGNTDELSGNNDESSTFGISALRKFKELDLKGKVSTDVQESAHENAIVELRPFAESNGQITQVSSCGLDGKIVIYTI
On to W503A, for which the “effect of a mutation on the interaction” value is listed as “decreasing interaction”.

A further experiment covers variants of B1. As to conditions: with arp3_yeast ARP3, P47117.
Sequence of arp3_yeast ARP3, P47117 (P47117 whole entry): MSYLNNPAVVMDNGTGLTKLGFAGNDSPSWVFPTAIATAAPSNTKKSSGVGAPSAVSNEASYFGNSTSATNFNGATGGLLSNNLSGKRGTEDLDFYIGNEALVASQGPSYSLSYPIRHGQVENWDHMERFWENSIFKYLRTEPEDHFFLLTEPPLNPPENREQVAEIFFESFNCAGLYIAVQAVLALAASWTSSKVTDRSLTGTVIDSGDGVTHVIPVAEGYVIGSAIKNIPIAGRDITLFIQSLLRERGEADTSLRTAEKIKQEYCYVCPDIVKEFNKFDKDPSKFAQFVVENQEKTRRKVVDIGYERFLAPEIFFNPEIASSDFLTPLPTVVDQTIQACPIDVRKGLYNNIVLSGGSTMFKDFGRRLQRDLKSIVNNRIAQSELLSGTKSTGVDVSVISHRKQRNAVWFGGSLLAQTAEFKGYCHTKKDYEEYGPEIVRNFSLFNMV
Regarding W503A, the “effect of a mutation on the interaction” value is “decreasing interaction”.

The variants in the next experiment derive from B1. Particulars: with arp2_yeast ARP2, P32381.
Sequence of arp2_yeast ARP2, P32381 (P32381 whole entry): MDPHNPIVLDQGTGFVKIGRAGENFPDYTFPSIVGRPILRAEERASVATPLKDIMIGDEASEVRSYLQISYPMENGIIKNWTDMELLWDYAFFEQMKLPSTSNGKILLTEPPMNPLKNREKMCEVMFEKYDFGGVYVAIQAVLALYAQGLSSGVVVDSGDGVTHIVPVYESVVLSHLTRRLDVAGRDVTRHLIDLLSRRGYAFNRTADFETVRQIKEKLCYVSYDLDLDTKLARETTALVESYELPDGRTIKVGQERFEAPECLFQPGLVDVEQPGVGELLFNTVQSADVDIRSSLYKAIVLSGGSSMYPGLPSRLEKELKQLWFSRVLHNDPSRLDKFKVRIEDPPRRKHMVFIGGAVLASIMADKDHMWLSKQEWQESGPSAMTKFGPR
For W503A, the “effect of a mutation on the interaction” value was “decreasing interaction”.

Values taken from IntAct's records for PubMed 15485833.
